According to paper PMC5927468:

Biological target: sorting nexin 9 (SNX9) (UniProt Q9Y5X1)
Test: anti-eGFP nanobody pulldown, SNX9 immunoblot
Conditions: reference: Dyn1a wild type-eGFP; sites S774,S778

dynamin-1 (Dyn1a) (from UniProt Q05193) Dyn1a S774/8A-eGFP
fold change: 3.6
